Measurements taken from the DeepSol protein solubility set.

Experiment: soluble on expression in E. coli; label from the status in PepcDB or PDB records

Sequence	soluble on expression in E. coli
MTAGLHHAAANGVRVRPFRRHPTKRYILTGAPGAGKTVLLRALETAGEVVVEEAATDVIALAQAQGVDQPWTDPGFIDTIVGLQRQRQTRAVGDRIFFDRSPVCALALARFLGHPVSALLEDELARIVREGVYQRRVFLVQGLGFITPTAARRISLDDAQAFEEVHQAAYTELGFELAPIAPGPVGDRVRRVLGAVLEHHHHHH	not soluble
MKTYDVVVVGAGMLGIAHAWAAARRGLSVAVVERSQRAHGATIRNFGQVLVTGQAPGVMARHARQSRELWLELAAGAGFHVRANGSLVLARSALEQDVLEEFAAARLQAEGYRAELLSGRELARLFDGRLGHHCAALRGHDDLQIYSREALPAITAYLADRFGVEFLTATLASAVREGVVQTSAGALRGRHAFVCPGHDYLTLAPELFAPLGLQVSCLQMLRVAFETRPFALDRPLLTGLSCVYYGAFSDLPTARTLRESLQRHEPDLLDNGIHLLVSPTPHGELIIGDSHRYGVDALPFNDEQVDCAMLDLAQQALGCRLRVIERWQGVYGAHGPAPFSVLPVDDQTTVAVMHSGVGMTVGLAVGENTVQARLGLEHHHHHH	not soluble
MALITTGSKFLRALEQEGALAVYAPLEGGYEGRYLRRLRSKGYSALTYSARGLGDPAQFLMDIHGVRPPHLGKQTIGNEAAVGRVEYVLPLVGYPLQNLPANAKGLVLWLLEGHVLSPQELSYFVTLPQAEPRLKVVIEMGGDRGFSWQPLAAVAEAALEHHHHHH	not soluble
MSLVGGFPHHPVVHHEGYPFAAAAAAAAAAAASRCSHEENPYFHGWLIGHPEMSPPDYSMALSYSPEYASGAAGLDHSHYGGVPPGAGPPGLGGPRPVKRRGTANRKERRRTQSINSAFAELRECIPNVPADTKLSKIKTLRLATSYIAYLMDLLAKDDQNGEAEAFKAEIKKTDVKEEKRKKELNEILKSTVSSNDKKTKGRTGWPQHVWALELKQ	not soluble
MLPKTWRENFFVLVREVKNLRATAKKISRHFFRKYEPQPGVFWFVFHLSRSHPFPFLKPLLSGDQARGAATPTPCMRTHLFHRIDPIKSEMGGLSTGYITFVWRGVHPRIGPIAAESLTDGKEEDEALSCGYII	not soluble
MSYKEGDVLVTNGEQSPGYKIVEIKGLVVGITVRSRGLGKNIIASLRSLLGGEIKEYVELAEQARLQALQRMVDNAKALGANAVVNVRFDSNELSEAMDEIIAYGTAVVVEKSS	soluble
EKKPYIISNVGMTLDGKLATINNDSRISCEEDLIRVHKIRANVDGIMVGIGTVLKDDPRLTVHKIKSDRNPVRIVVDSKLRVPLNARVLNKDAKTIIATTEDTNEEKEKKIKILEDMGVEVVKCGRGKVDLKKLMDILYDKGIKSILLEGGGTLNWGMFKEGLVDEVSVYIAPKIFGGKEAPTYVDGEGFKTVDECVKLELKNFYRLGEGIVLEFKVKK	soluble
MAEVPHHNIPAVDMLNATSRLQLEAQELRNNKPNWGSYFRSQMIQEDDYNFITSFENAKSKEERDQVLAANNANGQAAKTMANLITQVAKDQNVRYVLTLFDDMLQEDKSRVELFHSAAARQKRTVWSQYLGILQRQDNFIVNQMSSIIAKLACFGTTRMEGQDLQYYFSFLKEQLKNSTTNDYMNTTARCLQMMLRHDEYRHEFVDSDGVQTLVTALNGKTNFQLQYQLIFAVWCLTFNADIARKAPSLGLIQALGDILSESTKEKVIRIILASFVNILSKVDEREVKREAALQMVQCKTLKTLELMDAKKYDDPDLEDDVKFLTEELTLSVHDLSSYDEYYSEVRSGRLQWSPVHKSEKFWRENASKFNDKQFEVVKILIKLLESSHDPLILCVASHDIGEYVRHYPRGKTVVEQYQGKAAVMRLLTAEDPNVRYHALLAVQKLMVHNWEYLGKQLDSDVQTDTVAVK	not soluble
MTMEQLQTPPVVVEVCHTLDKKQLNAISKQVYETTLEAIERARRDSEVDSDLIYTRVGVRRFLDNCSEAYLDELIAKGLPTGRRLSDRKTCWSKHQLRSWLLENE	not soluble
MTKKCPKCGNEFDAELTTCPTCGYSLTDTTVDKEEAETTSTNIDFETQENEEHEDQLNENIEWSELKDMSLGHVMELFGESPEEESNDDKKEESTEDNLIVSDSEDVSGLEASLQEGASEETHDSVEESIPATEETPTHSTEEKLATDEAVNLEETTEETTEETTTVEAETAEVSETVKSEEEALTEISGTEVISTTSEEEIFSQPPIEDQDVTPNETLQAYIQAHRADTEMSENPSEETAETQELENSGEAVLTQAETPTESISDSEEGLTSAASLEAPSDADATEGKVSDSGVIPPMNETGNAQPAPAPKKPSKKVVFVALAVVLLAGGSAWAYHDQTQKAAAQEAAALTKKTDTLKDELAAFYTTKEQVFIKPDMVTVSPEKLSKQVAEIKDSEEYSQLNKQIQTLKEKQQTIQQINQLFEAPIVNGNELKPAILAADQPISVKKLTGNDPFDQLMNQAIDQANQQYNQLQKAKKAVEVIYKDGKTTNQLNRDTYQAAKAEVDKVTSDKLKKELVKQVTTADQALTKVEEEQKRIAEEQAAAEQAKQAEEQAKQAAAAKKEDAKKEETAKTEANGYTAPNSDGVYTSPLYAPDAADIADSSNPAWTWAPGVKEKVLDTVIARGYVVPGGYSLEPAKIVNGEGYYNLYATNNQSKLLEGTTEKNVHMYLVTINAKTGWFKGNASRNAGQ	not soluble
MGSDKIHHHHHHMPFIIDYQCLCAINSEIKMFSGEQLGQAISEAIKRKNVSQKEVADHFGVKQPSVSGWIKNGRIDKKHLDKLIDYFSDVVTPSHFGIETFRVLKSNEQSSIRFPRLNAEATCGAGTINDHYIEVVDYVTVAAAWAREKLGGNLNKIQVITARGDSMEPTIENGDVMFVDTAVEAFDGDGLYLLWYIDGLKAKRLQSTVGGGLMIISDNSSYRTETVRGEDLNAVRIIGRIRGAWRLSQF	not soluble
MSLAPLDLDKYVEIARLCKYLPENDLKRLCDYVCDLLLEESNVQPVSTPVTVCGDIHGQFYDLCELFRTGGQVPDTNYIFMGDFVDRGYYSLETFTYLLALKAKWPDRITLLRGNHESRQITQVYGFYDECQTKYGNANAWRYCTKVFDMLTVAALIDEQILCVHGGLSPDIKTLDQIRTIERNQEIPHKGAFCDLVWSDPEDVDTWAISPRGAGWLFGAKVTNEFVHINNLKLICRAHQLVHEGYKFMFDEKLVTVWSAPNYCYRCGNIASIMVFKDVNTREPKLFRAVPDSERVIPPRTTTPYFLEGHHHHHH	not soluble
MMHGGFAMIIDQYWGKYFGDSADSQRLAQYLAGKNREVLTTSEIFQDFQLAQLSGNYTQASLDGAGWHFDSAFQFVIDLAVLVLESKKVGRFSIARIGGPEDRFMRIDAATDELLPITMALKHYALAPEDYLFSHGIDVDDWYELGNLCEEIRAQLEA	not soluble
MANFPASLLILNGKSADNQPLREAITLLRDEGIQIHVRVTWEKGDAQRYVDEARRLGVETVIAGGGDGTINEVSTALIQIRDGVAPALGLLPLGTANDFATSAGIPEALDKALKLAIAGNAMEIDMAMVNDKTCFINMATGGFGTRITTETPEKLKAALGGVSYLIHGLMRMDTLTPDRCEIRGENFHWQGDALVIGIGNGRQAGGGQQLCPTALINDGLLQLRIFTGEELLPALFSTLTQSDDNPNIIDGASAWFDIHAPHEITFNLDGEPLSGQEFHIEVLPGALRCRLPPDCPLLR	soluble
MGSDKIHHHHHHMIDIHCHILPEIDDGPSSLEESLVMAREAVKEGITKIIATPHHLHPSYNNKAAVVKEKVRKLNEAIQKENIPLEILPGQEVRISGDVMDGLVSGDILTLADQGKYLFVEFSSNHVSRYADKLFFQLLSQDIIPIIVHPERNHEFLKNPGLLYDLVNGGALTQITTSSLTGHLGKKIKKFTEQIIEADLTHFLASDAHNVTERTFRIREAFALVEKNYGSSKAYEFQENAELLVENQHVMGPPPQPIVKKKLLGIF	not soluble
MGSDKIHHHHHHMHQGAHLDLDDGYQGDISNIGFIIGAKGVAVIDTGGSRQVGEALLSAIREITDLPVLYVINTHIHPDHIFGNAAFKQEHPVFIGHAKLPNAMALRGEAYLRQGQKLLGIQFSESEIIPPTQLVASFQELDIGGRKLLLTAYPNAHTNTDLTVLDETTGTLWTGDLLFIERAPSIDGDIKGWLSAIEDLQKLTGIQLAVPGHGPATQDLQGALSNQARYLNLLLHDVRKAIKQGHSMQQAMESAAASESGHWQLFHEVNRRNVNLIYPVLEWE	not soluble
MAKKKDEITIRSSAAEYLTYVASVGDQQDSIEMRYEDENIWLTQKMMATLYDVDVRTINEHIKKIYSDSELEEDSTIRNFRIVQTEGSRQVTRDTKHYNLQMIIAVGFKVNSERAVQFRKWVNQIAKDYTIKGWVMDDERLKRGTYLTEKYFDEQLERIREIRASERKFYQKITDLYATAIDYDKNAAMTRRFYSTVQNKMHYAVHGHTAAELIVERADHTKEHMGLTTWEDAPEGKIKKSDVTVAKNYLSQDEMKQLNRMVTAYLDFAENMTLRHIPLTMQDWEKRLNSFIEMFDYGILQDAGKVSAEIAKLHAETEFEKYRVIQDRLFMSDFDKFMLELEENTKK	not soluble
MGSDKIHHHHHHMLLDTNIFSSFEDYSDISGKLNELSRRLNPKSILLKHPKSIEYLNTLDEDTKRILLSKLAFCDLLNDYPSPINDLEFNTNVGYLKGTNNDLENNLLYAVYTNSVTYLITENRMIHQKSTKLGLKDRVLYLNEALDFFKEFYSIQKRQILPQIKQRPITKVDVDDQIFDSLREEYPEFNNWYNEKAHLGRECWCYIKESGKLGAVLIFNGEDFDVIKTDPLLPEKRRFKICTFKVDQVGYKLGELLLKKAFDYCIDNSITETYLTHFAKSEFDYLVNLITEYGFIDIGTNENGENVFFKDLNPTPNQLMFCDYKDIFKKYYPLFYDGNRVKKLVVPIRPQYHEKLFTDYVKRTSITLNEYFGDFIIEGNTIKKAYISHSPIKNLKKGDILLFYRSEDHKELTSLGVLEEFKTNLTSPEEIINMVGKRTVYSSREIEEIVKKPASVMIFTMHLHLKSPIPLTVLKENNILKGPPQTITEITHGAYEKIRDLGGINDNLTIH	not soluble
METKYRKPFVYEFITEKEVMNAANDLVKKGIEQKDIYVLTHEKERTDRIADNADVNTIGIKEEGLGTSIINVFQKTGDQLRNKMQELGLNEEEANFYEEKLDEGKILLFVKDLERVGEWLHERRCMYSI	not soluble
MGSDKIHHHHHHMKKAHVIVVGNEKGGTGKSTISMHLIVSLLDKGLSVGSIDIDARQATLSRYIGNRAARQDRAELNLPIPEHIPIPPSGDAQADCARLDEVFKDFAARHDVVVIDTPGSDHPMSRLGHSFADTLVTPLNDSLVDLDVLALVEPGTMKIRRPSHYAEMVWETKKTRAMRGEKAVVDWIVLRNRLSNLDARNKRDMEKLLAELSKRVGFRVIPGLGERVIYRSMFLEGLTLVDLKKKPLGFDFNMSHVAARQELRTLVDAIGLGLPATA	not soluble
MLKIGIIPNEDKDEELKYTRILVDSIKKCGGTAIVCDDIALKLGDKESNINEDNIVDMSDVMVCLGGDGTFLKAARMTVVKGKPLLGVNLGKLGFLADVDKNDIENAVKRLVEDKFTVDERMMLDTVIVRDGKIIAEDIVLNDVVISRGAISRILHLKTYINDAFMDLYPGDGLIISTPTGSTAYSLSAGGPLVEPDVDLIICTPICPHLLYSRSFITTADRVIKVVVAESSSHEAMVTVDGQNGYEVRGGDVIITKKSRIRMPMVRLNGKNFFDVLRGKIYDRGESMK	not soluble
MSELVEMEVHGITLDPTTQMPIVVLKGKEDENLILPIWIGAFEANGIAMKLQGVEPPRPMTYELLKNIITEMGGNVEKVVINDLKDSTYYAEIYINQGNNTLVIDSRPSDAINLALRFGAPIYVAEHVLEQSKLPEPEEDEEKKKLREWLENIKPEDFEIGGEKSLEHHHHHH	soluble
